The source of these data is publication PMC11293870.

The target of this assay is T1, LKB1-3xFlag (pcDNA3.1-LKB1-3xFlag) (human) (UniProt Q15831).
T1 sequence: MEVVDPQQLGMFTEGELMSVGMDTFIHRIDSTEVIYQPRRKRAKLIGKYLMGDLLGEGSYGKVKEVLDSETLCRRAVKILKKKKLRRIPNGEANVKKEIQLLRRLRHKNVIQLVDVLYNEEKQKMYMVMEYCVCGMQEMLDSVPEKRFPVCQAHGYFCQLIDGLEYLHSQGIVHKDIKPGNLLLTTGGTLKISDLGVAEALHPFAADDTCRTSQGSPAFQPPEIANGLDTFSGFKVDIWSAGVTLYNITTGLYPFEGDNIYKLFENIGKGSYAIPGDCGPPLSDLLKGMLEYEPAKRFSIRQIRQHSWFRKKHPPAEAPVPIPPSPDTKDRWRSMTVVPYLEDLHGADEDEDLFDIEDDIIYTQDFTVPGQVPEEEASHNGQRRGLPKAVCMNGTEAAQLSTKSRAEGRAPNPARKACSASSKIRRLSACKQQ

B1: STRADα-KinCon (pcDNA3.1-F[1]-STRADα-F[2]) (natural protein)
chain: MSFLVSKPERIRRWVSEKFIVEGLRDLELFGEQPPGDTRRKTNDASSESIASFSKQEVMSSFLPEGGCYELLTVIGKGFEDLMTVNLARYKPTGEYVTVRRINLEACSNEMVTFLQGELHVSKLFNHPNIVPYRATFIADNELWVVTSFMAYGSAKDLICTHFMDGMNELAIAYILQGVLKALDYIHHMGYVHRSVKASHILISVDGKVYLSGLRSNLSMISHGQRQRVVHDFPKYSVKVLPWLSPEVLQQNLQGYDAKSDIYSVGITACELANGHVPFKDMPATQMLLEKLNGTVPCLLDTSTIPAEELTMSPSRSVANSGLSDSLTTSTPRPSNGDSPSHPYHRTFSPHFHHFVEQCLQRNPDARPSASTLLNHSFFKQIKRRASEALPELLRPVTPITNFEGSQSQDHSGIFGLVTNLEELEVDDWEF
As for B1, the STRADα KinCon reporter bioluminescence (intramolecular RLuc PCA, closing of the conformation) on co-expression of LKB1 and MO25; HEK293T, 48 hr of expression (also HeLa and SW480) was above 10 fold.
